In PMC10502629 one finds percent conjugated data, which are given here for one substance.

Test [1] concerns the target SC-AaLS (SpyCatcher fused to the N-terminus of Aquifex aeolicus lumazine synthase) (Aquifex aeolicus). Nature of the test: covalent SpyCatcher/SpyTag conjugation read by SDS-PAGE; purified SC-scaffolds incubated with ST-OVAT in conventional buffer without any enzyme (4 °C, 16 h in Figure 3e); conjugates purified by SEC, SDS-PAGE with Coomassie staining; reactivity kept after heating at 75 °C or 5 x …. For orientation: Size exclusion chromatography separates by hydrodynamic size, large species first.

In test [2] the target is SC-A0A4 (SpyCatcher fused to the N-terminus of the AaLS homologue A0A497XTC1 of Hydrogenivirga caldilitoris) (Hydrogenivirga caldilitoris). The test is described as above.

“ST-OVAT (SpyTag fused to the N-terminus of ovalbumin T epitopes) (peptide)”: the percent conjugated in test [1] and in test [2] was 100% in each case.
